Consider two molecules from patent publication US20110280881A1, “NOVEL ANTI-HSP90 MONOCLONAL ANTIBODY” (RIKEN, priority 2010, published 2011).

The test system of assay [1] is OT-I CD8+ T cells. Description: In vivo OT-I CD8+ T cell proliferation by 6H8-OVA after 6H8 antibody given in advance. Details: species or system mouse. To be noted: 6H8 antibody 20 μg in advance, 6H8-OVA (0.3 mg), tail vein, 72 hours. The protocol: The 6H8 antibody or IgG2a [normal mouse IgG2a (nmIgG2a), 20 μg] was diluted with 200 μl of PBS and administered to B6 mice from the tail vein. As a control, a group of animals that received PBS alone was also prepared.
Subsequently, CFSE-labeled OT-I CD8^+ T cells ([…]) were suspended in 200 μl of RPMI and administered from the tail vein. Concurrently, 6H8-OVA (0.3 mg) diluted with 200 μl of PBS was administered from the tail vein. As a control, a group of animals that received PBS alone was also prepared.
72 hours later, splenocytes were recovered from each recipient mouse, and decay of CFSE intensity were measured using FACS Calibur (BD Biosciences) to confirm the proliferation of transferred cells.

For assay [2], the system named is cell surface HSP90 on DC2.4 cells. Description: Internalization of cell surface HSP90 by the 6H8 antibody. Format: cell-based. The protocol: The behavior of the 6H8-HSP90 complex after being recognized by the 6H8 antibody was examined as described below. First, DC2.4 cells were incubated in the presence of biotinylated 6H8 (1 μg/ml) on ice for 30 minutes and washed. Next, the cells were incubated at 37° C. with 5% CO2 for 0, 10, 20, 30, or 60 minutes. After cooling on ice, the cells were stained with PE-Cy5-streptavidin and analyzed by FACS. The results are shown in the left panel of FIG. 4B. Shown in the right panel are bar graphs for the MFI of each group.
Furthermore, immunostaining was performed to compare the behavior of HSP90 with the behaviors of the MHC class 1 molecule H-2K^b and the MHC class II molecule I-A^b. First, DC2.4 cells were incubated in the presence of the biotinylated 6H8 antibody and the FITC-labeled anti-H-2K^b antibody or anti-I-A^b antibody (Pharmingen, the antibody was used at a 100-fold dilution) in the same manner as the above. The cells were stained with PE-Cy5-streptavidin, returned to room temperature and incubated for 20 minutes, and then examined using a confocal microscope. […] It was confirmed that cell surface HSP90 was internalized by the 6H8 antibody.

Assay [3] relates to cell surface HSP90α and β. Kind of assay: Immunoprecipitation of cell surface HSP90 from DC2.4 living cells. In kind it is binding. To be noted: DC2.4 living cells incubated with antibody on ice. The protocol: Mammalian HSP90 occurs in two isoforms: HSP90α and β. The following experiment was performed to determine whether not only HSP90α but also HSP90β is recognized by the antibody of the present invention. First, DC2.4 living cells were incubated along with an antibody on ice using 6H8, 2A6 or normal mouse IgG as a negative control. After being thoroughly washed to remove the unreacted antibody, the cells were lysed; the lysate was centrifuged at 10,000×g, and the resulting supernatant was incubated along with Protein G-Sepharose. The bound material was subjected to SDS-PAGE, after which blotting was performed using an anti-HSP90α antibody (SPS-771, Assay designs), an anti-HSP90β antibody (PB-118-P1, Neomarkers), or an antibody that recognizes both HSP90α and β (6B1C4, another antibody obtained in Example 1).

Assay [4] has as its system cytotoxic T cells specific for OVA257-264 epitope. Kind of assay: Induction of OVA257-264-specific cytotoxic T cells by immunization (tetramer staining, 51Cr release). In kind it is in vivo. As to conditions: 3 μg per mouse. The protocol:
The mice were immunized twice at a 1-week interval. One week after second immunization, splenocytes were cultured in the presence of the OVA257-264 peptide for 5 days. The resulting cytotoxic T cells were monitored by tetramer staining [T cells were stained using T-Select H-2K^b OVA Tetramer-[…]-PE (MBL, TS5001-1, amount used=1 test/tube) at room temperature for 30 minutes], and standard ^51Cr release assay [2×10^6 each of mouse tumor cells E.G7, supplied by Dr. Michael Bevan at the University of Washington, U.S.A. (see Cell vol. 54:777-785, 1988), and EL4 (purchased from ATCC) were labeled with 50 microcuries of sodium ^51Cr, and used as the target cells; the cytotoxic T cells were added to 5×10^3 target cells as indicated in FIG. 8E; after cultivation for 4 hours, free ^51Cr in the supernatant was measured to calculate the cytotoxic activity; the EL4 cells with or without pulsing with the peptide OVA257-264 were prepared].

The test system of assay [5] is MO5 (OVA-expressing melanoma). Description: Pulmonary metastasis model with MO5 (OVA-expressing melanoma). As to conditions: MO5 i.v.; 4 days later 6H8-OVA (10 mg) i.v.; counted 15 days later. Format: in vivo, mouse. The protocol:
The pulmonary metastasis suppressing effect of 6H8-OVA was examined in a pulmonary metastasis model that is generated by transvenously administering MO5 (OVA-expressing melanoma) to a mouse. MO5 was administered to the mouse from a vein; 4 days later, PBS or 6H8-OVA (10 mg) was administered from a vein. 15 days later, pulmonary metastatic spots were counted.

The test system of assay [6] is OT-I CD8+ T cells. Kind of assay: In vitro cross-presentation assay with BMDC of normal and FcRγ KO mouse. In kind it is cell-based. As to conditions: BMDC pulsed 3 hours, co-culture with OT-I CD8+ T cells, IFNγ ELISA. The protocol: (1) A bone marrow-derived dendritic cells (BMDCs) were established from a normal mouse and an FcRγ KO mouse (supplied by Professor Akira Shibuya, Immunology, Life System Medical Sciences, Majors of Medical Sciences, Graduate School of Comprehensive Human Sciences, University of Tsukuba) as described below. Bone marrow was recovered from a mouse femur and tibia, and 1×10^6 cells each were cultured in a 24-well plate using 2 ml/well of a complete RPMI containing 20 ng/ml recombinant mouse GM-CSF (R&D). Half of the medium was exchanged for a fresh medium on day 3 of cultivation, and the cells obtained on day 5 of cultivation were used as the BMDC. (2) BMDCs at Day 5 induced in a GM-CSF-dependent manner was stained with biotin-6H8 (2.5 μg/ml) and streptavidin-APC (0.2 μg/ml), and its fluorescence was determined using FACS Canto (BD).
(1) A pellet of 1×10^6 BMDC cells at Day 5 induced in a GM-CSF-dependent manner were prepared in a 15-ml tube. After adding 400 μl of an antigen (6H8-OVA, OVA, or OVA257-264) thereto, the tube was incubated with 5% CO2 at 37° C. for 3 hours. The cells were fixed in 0.5% para-formaldehyde, after which the cells were washed with 0.1 M glycine and then with RPMI; thereafter, the density was adjusted to 1×10^5 cells/ml. (2) Concurrently, OT-I CD8^+ T cells were purified and the density was adjusted to 1×10^5 cells/ml. […]

B1: 6H8: anti-HSP90 monoclonal antibody produced by hybridoma FERM BP-11222; epitope … (antibody)
VH: QVQLQQSGPELVKPGASVRISCKASGYTFTSYYIHWVKQRPGQGLEWIGWIYPGNVNTKYNEKFKGKATLTADKSSSTAYMQLSSLTSEDSAVYFCARYGNYPFAYWGQGTLVTVSAAKTTAPSVYPLAPVCGDTTGSSVTLGCLVKGYF
VL: DVVMTQTPLSLPVSLGDQASISCRSSQSLVHSNGNTYLHWYLQKPGQSPKLLIYKVSNRFSGVPDRFSGSGSGTDFTLKISRVEAEDLGVYFCSQSTHVPPTFGGGTKLEIKRADAAPTVSIFPPSSEQLTSGGASVVCFLNNFYPKDINVKWKIDGS
For the molecule B1, the “effect on promotion of proliferation of CD8+ T cells by 6H8-OVA” value with OT-I CD8+ T cells [1] was “enhanced”. In addition, in assay [2] (DC2.4, 20 minutes at room temperature), the “internalization of cell surface HSP90 (confocal microscope)” value is given as “internalized”. In addition, in assay [2] (DC2.4, biotinylated 6H8 1 μg/ml, 37° C.), the “time for the 6H8-HSP90 complex to disappear from the cell surface (enter into cells)” value is on record as “about 10 minutes”. In assay [3], the “recognition of cell surface HSP90α and β on living cells (immunoprecipitation)” value was “recognized”.

B2: 6H8-OVA: high molecular weight conjugate of the 6H8 antibody and maleimide-activated OVA (conjugate)
VH: QVQLQQSGPELVKPGASVRISCKASGYTFTSYYIHWVKQRPGQGLEWIGWIYPGNVNTKYNEKFKGKATLTADKSSSTAYMQLSSLTSEDSAVYFCARYGNYPFAYWGQGTLVTVSAAKTTAPSVYPLAPVCGDTTGSSVTLGCLVKGYF
VL: DVVMTQTPLSLPVSLGDQASISCRSSQSLVHSNGNTYLHWYLQKPGQSPKLLIYKVSNRFSGVPDRFSGSGSGTDFTLKISRVEAEDLGVYFCSQSTHVPPTFGGGTKLEIKRADAAPTVSIFPPSSEQLTSGGASVVCFLNNFYPKDINVKWKIDGS
chain: GSIGAASMEFCFDVFKELKVHHANENIFYCPIAIMSALAMVYLGAKDSTRTQINKVVRFDKLPGFGDSIEAQCGTSVNVHSSLRDILNQITKPNDVYSFSLASRLYAEERYPILPEYLQCVKELYRGGLEPINFQTAADQARELINSWVESQTNGIIRNVLQPSSVDSQTAMVLVNAIVFKGLWEKAFKDEDTQAMPFRVTEQESKPVQMMYQIGLFRVASMASEKMKILELPFASGTMSMLVLLPDEVSGLEQLESIINFEKLTEWTSSNVMEERKIKVYLPRMKMEEKYNLTSVLMAMGITDVFSSSANLSGISSAESLKISQAVHAAHAEINEAGREVVGSAEAGVDAASVSEEFRADHPFLFCIKHIATNAVLFFGRCVSP
B2: the “tetramer-positive cells after immunization” value in assay [4] (twice at 1-week interval, splenocytes cultured with OVA257-264 5 days) is given as “produced tetramer-positive cells”. For the same molecule, the “cytotoxicity in 51Cr release assay” value in assay [4] (twice, target cells E.G7, EL4 with or without OVA257-264) is given as “cytotoxicity to OVA257-264 epitope was also observed”. The pulmonary metastatic spots entry in assay [5] was “almost no metastatic spots”. Moreover, the “cross-presentation potential of FcRγ KO mouse-derived dendritic cells compared with normal mouse-derived dendritic cells” value with OT-I CD8+ T cells [6] was “significantly decreased”.
